In the Immune Epitope Database (IEDB) one finds Kd and IC50 data, which are given here for 59 sequences.

The target in assay [1] is HLA-A*02:01. Description: IEDB peptide-MHC binding, purified MHC/competitive/fluorescence; filed as Kd, often an IC50 or EC50 that approximates it; ≥ and ≤ were set here for values at or beyond the usual limits of such assays.
The target of another assay is HLA-A*69:01. Description: IEDB peptide-MHC binding, purified MHC/direct/fluorescence; filed as Kd, often an IC50 or EC50 that approximates it; ≥ and ≤ were set here for values at or beyond the usual limits of such assays.
Another assay concerns the target HLA-A*30:01. In words: IEDB peptide-MHC binding, purified MHC/competitive/radioactivity; filed as Kd, often an IC50 or EC50 that approximates it; ≥ and ≤ were set here for values at or beyond the usual limits of such assays.
The target in assay [2] is HLA-A*02:01. Description: IEDB peptide-MHC binding, purified MHC/competitive/fluorescence; ≥ and ≤ were set here for values at or beyond the usual limits of such assays.
For assay [3], the target named is HLA-A*02:01. In words: IEDB peptide-MHC binding, purified MHC/direct/fluorescence; filed as Kd, often an IC50 or EC50 that approximates it; ≥ and ≤ were set here for values at or beyond the usual limits of such assays.
Another assay addresses HLA-B*07:02. The assay is described as above.
Another assay has as its target HLA-B*40:01. The assay is described as above. The following applies: source organism: Mycobacterium tuberculosis.
Another assay has as its target HLA-B*15:01. Described as above.
The target in another assay is HLA-B*58:01. The assay is described as above.
Another assay deals with HLA-A*01:01. The assay is described as above. The note with it: source organism: Yersinia pestis.
The next assay addresses HLA-A*11:01. The assay is described as above.
The target of another assay is HLA-A*03:01. The description is as above.
A further assay has as its target HLA-B*27:05. The assay is described as above. The note with it: source organism: SARS-CoV1.
Another assay deals with HLA-A*02:03. Description: IEDB peptide-MHC binding, purified MHC/competitive/radioactivity; filed as Kd, often an IC50 or EC50 that approximates it; ≥ and ≤ were set here for values at or beyond the usual limits of such assays. The note with it: source organism: Vaccinia virus WR.
The target in the next assay is HLA-A*02:02. Described as above. The following applies: source organism: Vaccinia virus WR.
The target of the next assay is HLA-A*02:06. The description is as above. The following applies: source organism: Vaccinia virus WR.
The mark [4] stands for this setting: source organism: West Nile virus.
[5] abbreviates: source organism: Dengue virus 2 Jamaica/1409/1983.
Setting [6] is: source organism: Mycobacterium tuberculosis.
The mark [7] stands for this setting: source organism: Vaccinia virus WR.
Setting [8] is: source organism: Zaire ebolavirus.
[9] abbreviates: source organism: Vaccinia virus Copenhagen.
[10] abbreviates: source organism: Mycobacterium tuberculosis variant bovis.
[11] abbreviates: source organism: Sudan ebolavirus.
Setting [12] is: source organism: Bacillus anthracis.
The mark [13] stands for this setting: source organism: Human immunodeficiency virus 1.
Setting [14] is: source organism: Human immunodeficiency virus type 1 (STRAIN UGANDAN / ISOLATE U455).
Where [15] appears, read: source organism: Yersinia pestis.

Some results are limits rather than exact numbers.

Consider SLARGFPFV, for which the Kd in the assay with HLA-A*02:01 [1] (setting [4]) was 1.23 nM; with HLA-A*69:01 (setting [4]), at most 1 nM. Regarding GVFPVSIPIT, the Kd in the assay with HLA-A*30:01 (setting [5]) amounted to 7360 nM. In turn, YVGDLCGSV displayed a half-inhibitory concentration (IC50) in the assay with HLA-A*02:01 [2] (source organism: Hepatitis C virus genotype 1) of at least 50000 nM. With VLQQVSNGV, the Kd in the assay with HLA-A*69:01 (setting [6]) was at least 20000 nM. Regarding RTRDLFIAL, the dissociation constant Kd with HLA-A*30:01 (setting [7]) was 0.108 nM. Still for that read-out and setting: next, KVSPPSLGK: 1.12 nM. In the case of TGVGKTSQV, the IC50 in the assay with HLA-A*02:01 [2] (source organism: Variola virus) came out at 36100 nM.

Consider RYRCSFAVA, for which the Kd with HLA-A*30:01 (setting [7]) was 0.00377 nM. As for DEAHFTDPAS, in the assay with HLA-A*30:01 (setting [5]), the Kd is 13900 nM. AMLHWSLIL: the equilibrium dissociation constant (Kd) with HLA-A*69:01 (source organism: Yellow fever virus 17D) is at least 20000 nM. The sequence TSSDPGTNT came in with an IC50 with HLA-A*02:01 [2] (setting [8]) of at least 251000 nM. For HAVYSIVFV, the Kd in the assay with HLA-A*30:01 (setting [7]) is 591 nM. DTGEESASS: the IC50 in the assay with HLA-A*02:01 [2] (setting [8]) is at least 425000 nM. HIFYQLANV: the Kd in the assay with HLA-A*30:01 (setting [7]) worked out at 60.4 nM.

As for RFLTIPPTA, in the assay with HLA-A*30:01 (setting [5]), the dissociation constant Kd amounted to 60.5 nM.

In turn, NLWNGIVPT showed a Kd with HLA-A*02:01 [1] (setting [9]) of 0.2 nM. Turning to KQKMGPIYA, the Kd with HLA-A*30:01 (setting [7]) is 21.7 nM.

As for FSYGTLIID, the IC50 in the assay with HLA-A*02:01 [2] (source organism: Variola virus) is at least 283000 nM. Regarding ELRGLLKDV, the Kd in the assay with HLA-A*02:01 [3] (setting [10]) is at least 20000 nM; with HLA-A*69:01 (setting [10]), 13000 nM. With RPASAGAML, the results for the Kd in the assay with HLA-B*07:02 (source organism: Homo sapiens) and with HLA-A*69:01 (source organism: Homo sapiens) were 34 nM and 8380 nM, respectively. Sequence AMVQVHSQG displayed an IC50 with HLA-A*02:01 [2] (setting [8]) of at least 102000 nM. The sequence LEYDGFADF gave a Kd in the assay with HLA-B*40:01 of 42.4 nM. For TLFKIDNNT, the IC50 with HLA-A*02:01 [2] (setting [11]) worked out at 18700 nM. Consider NQRETTVVW, for which the Kd with HLA-B*15:01 (source organism: Pseudomonas aeruginosa) is 133 nM. As for HKIMASENS, the IC50 in the assay with HLA-A*02:01 [2] (setting [8]) is at least 253000 nM. VGYVDDTQF: the results for the Kd with HLA-B*15:01 (source organism: Homo sapiens), in the assay with HLA-B*58:01 (source organism: Homo sapiens) and with HLA-B*07:02 (source organism: Homo sapiens) were 572 nM, 210 nM and 6180 nM, respectively.

As for VLPPEINSL, the Kd with HLA-A*02:01 [3] (setting [6]) turned out to be 71.4 nM. FIDNPLPNQ registered a half-inhibitory concentration (IC50) in the assay with HLA-A*02:01 [2] (setting [11]) of 28100 nM.

Turning to FSTLDKITD, the IC50 with HLA-A*02:01 [2] (source organism: Variola virus) is 53600 nM. With LLYKQLNFT, the Kd with HLA-A*02:01 [3] (setting [12]) is 1180 nM; with HLA-A*69:01 (setting [12]), at least 20600 nM. Regarding KHGEYAPFA, in the assay with HLA-A*02:01 [2] (setting [8]), the IC50 stood at 28300 nM. Regarding SNGLITSTV, the IC50 with HLA-A*02:01 [2] (setting [11]) was 60400 nM. HLSNSFFIK: the Kd with HLA-A*30:01 (setting [7]) was 17.3 nM. FLIDLAFLI returned a Kd with HLA-A*02:01 [3] (source organism: Camelpox virus M-96) of 3 nM. As to GSRVRNIIA, the Kd with HLA-A*30:01 (setting [7]) turned out to be 8.85 nM. RLVDSIGSW displayed a Kd in the assay with HLA-B*58:01 (source organism: Influenza A virus (A/swine/IDT/Bakum1832/2000(H1N2))) of 128 nM. Consider AINGFVLPK, for which the Kd with HLA-A*01:01 is at least 20000 nM. Take KMKELSPRW: the Kd with HLA-B*15:01 (source organism: SARS-CoV1) is 1200 nM; with HLA-A*11:01 (source organism: SARS-CoV1), at least 30200 nM; with HLA-B*58:01 (source organism: SARS-CoV1), 420 nM; with HLA-A*03:01 (source organism: SARS-CoV1), 5750 nM; with HLA-B*27:05, 5250 nM. For LLSQYVDDA, in the assay with HLA-A*02:01 [2] (source organism: Vaccinia virus), the 50% inhibitory concentration (IC50) was 23300 nM.

RIRQGKFIK: the Kd with HLA-A*30:01 (setting [7]) was determined as 4.79 nM. VSTAVAALF returned an equilibrium dissociation constant (Kd) in the assay with HLA-B*58:01 (source organism: Mycobacterium tuberculosis F11) of 32.6 nM. In the case of MTSLSAVSV, the dissociation constant (Kd) in the assay with HLA-A*30:01 (setting [7]) worked out at 887 nM. Regarding KSLYSHQLV, the Kd with HLA-A*30:01 (setting [7]) was 12.3 nM. YVKFIYFIK: the Kd with HLA-A*30:01 (setting [7]) was 60 nM. Sequence FLHEDTEKI displayed a Kd with HLA-A*02:01 [1] (source organism: unidentified) of 20 nM. With LFVVTLIPLC, the Kd with HLA-A*30:01 (source organism: Dengue virus 4 Philippines/H241/1956) worked out at 414 nM. As to RLDGTTLEV, the IC50 in the assay with HLA-A*02:01 [2] (source organism: Mycobacterium leprae) is 35 nM. In the case of GRLITANPIV, the Kd with HLA-A*30:01 (source organism: Dengue virus 1 Brazil/97-11/1997) is at least 57100 nM. On to NANPDCKTI, for which the Kd with HLA-B*58:01 (setting [13]) was found to be 9310 nM; with HLA-A*69:01 (setting [13]) it was 7640 nM. Regarding HPDIVIYQY, the Kd with HLA-B*15:01 (setting [14]) came to 1510 nM; with HLA-B*07:02 (setting [14]), 13000 nM. In the assay with HLA-A*02:01 [2] (setting [11]), NLHYWTAQE had an IC50 of at least 189000 nM. Take KQSQSYLTK: the Kd with HLA-A*30:01 (setting [7]) is 158 nM.

For IIKSPYMFA, the Kd in the assay with HLA-A*30:01 (setting [9]) worked out at 6.42 nM. For the sequence SAMVQVHSQ, the IC50 in the assay with HLA-A*02:01 [2] (setting [8]) is at least 609000 nM. In the assay with HLA-A*02:01 [2] (source organism: Human alphaherpesvirus 1 strain 17), FIPENQRTV came in with an IC50 of 4220 nM. In turn, QLSDHPMVK came in with a Kd in the assay with HLA-A*03:01 (source organism: Vibrio parahaemolyticus) of 146 nM.

Regarding FLEQGGFKA, the Kd with HLA-A*02:01 [3] (setting [15]) amounted to 64.3 nM; with HLA-A*69:01 (setting [15]) it was 1990 nM. RMGERQLQK gave an equilibrium dissociation constant (Kd) with HLA-A*11:01 (source organism: Yellow fever virus) of 29.5 nM. Consider QLVKDESIQL, for which the figures for the Kd in the assay with HLA-A*02:03, in the assay with HLA-A*02:02 and in the assay with HLA-A*02:06 were 130 nM, 157 nM and 1810 nM, respectively.

What is called Kd is the free concentration of one partner at which half of the binding sites on the other are occupied at equilibrium, for simple one-to-one binding. As usually defined, the IC50 is the concentration at which inhibition is half-maximal. A higher IC50 goes with weaker potency.
